According to publication PMC6252157 (Molecular neurobiology, 2018):

Target: T1, adenosine A1 receptor fused to Renilla luciferase (A1R-Rluc) (UniProt P30542 1-326)
T1 sequence (looked up): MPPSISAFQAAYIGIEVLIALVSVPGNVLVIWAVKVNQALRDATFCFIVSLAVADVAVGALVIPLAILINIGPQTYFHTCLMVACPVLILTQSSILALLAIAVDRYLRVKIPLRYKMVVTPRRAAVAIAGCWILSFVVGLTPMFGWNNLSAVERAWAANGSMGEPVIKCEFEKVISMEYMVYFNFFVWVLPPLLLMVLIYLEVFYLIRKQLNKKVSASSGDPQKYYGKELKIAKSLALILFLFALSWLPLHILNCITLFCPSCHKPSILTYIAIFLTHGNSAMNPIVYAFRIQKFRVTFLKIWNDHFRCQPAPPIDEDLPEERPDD
Assay: FRET or BRET

B1: dopamine D1 receptor fused to YFP (D1R-YFP) (receptor, UniProt P21728 1-446, looked up)
chain: MRTLNTSAMDGTGLVVERDFSVRILTACFLSLLILSTLLGNTLVCAAVIRFRHLRSKVTNFFVISLAVSDLLVAVLVMPWKAVAEIAGFWPFGSFCNIWVAFDIMCSTASILNLCVISVDRYWAISSPFRYERKMTPKAAFILISVAWTLSVLISFIPVQLSWHKAKPTSPSDGNATSLAETIDNCDSSLSRTYAISSSVISFYIPVAIMIVTYTRIYRIAQKQIRRIAALERAAVHAKNCQTTTGNGKPVECSQPESSFKMSFKRETKVLKTLSVIMGVFVCCWLPFFILNCILPFCGSGETQPFCIDSNTFDVFVWFGWANSSLNPIIYAFNADFRKAFSTLLGCYRLCPATNNAIETVSINNNGAAMFSSHHEPRGSISKECNLVYLIPHAVGSSEDLKKEEAAGIARPLEKLSPALSVILDYDTDVSLEKIQPITQNGQHPT
BRET50: 2 ± 1 YFP/Rluc ratio
